{"source": "patent US12269859B2", "about": "“Synthetic immune receptors and methods of use thereof” (Angeles Therapeutics, Inc., priority 2016, dated 2025)", "molecules": {"B1": {"name": "083116-F05 (protein)", "chain": "MALPVTALLLPLALLLHAARPLEGKPIPNPLLGLDSTGSGEDLKNVFPPEVAVFEPSKAEIAHTQKATLVCLATGFYPDHVELSWWVNGKEVHSGVCTDPQPLKEQPALNDSRYCLSSRLRVSATFWQNPRNHFRCQVQFYGLSENDEWTQDRAKPVTQIVSAEAWGRADCGITSASYHQGVLSATILYEILLGKATLYAVLVSALVLMAMVKRKDSRGRAKRSGSGATNFSLLKQAGDVEENPGPTSMALPVTALLLPLALLLHAARPDIQMTQSTSSLSASLGDRVTISCSASQGINNYLNWYQQKPDGTVELLIYYTSTLQSGVPSRFSGSGSGTDYSLTISNLEPEDIGTYYCQQYSKLPRTFGGGTKLEIKGGGGSGGGGSGGGGSQVQLQQSGSELMMPGASVKISCKATGYTFSNYWIEWVKQRPGHGLEWIGEILPGTGRTIYNEKFKGKATFTADISSNTVQMQLSSLTSEDSAVYYCARRDYYGNFYYAMDYWGQGTSVTVSSTREQKLISEEDLGSGTPFPSLAPPIMLLVDGKQQMVVVCLVLDVAPPGLDSPIWFSAGNGSALDAFTYGPSPATDGTWTNLAHLSLPSEELASWEPLVCHTGPGAEGHSRSTQPMHLSGEASTARTCPQEPLRGTPGGALWLGVLRLLLFKLLLFDLLLTCSCLCDPAGPLPSPATTTRLRALGSHRLHPATETGGREATSSPRPQPRDRRWGDTPPGRKPGSPVRAKRSGSGVKQTLNFDLLKLAGDVESNPGPSRSRGHMTEYKPTVRLATRDDVPRAVRTLAAAFADYPATRHTVDPDRHIERVTELQELFLTRVGLDIGKVWVADDGAAVAVWTTPESVEAGAVFAEIGPRMAELSGSRLAAQQQMEGLLAPHRPKEPAWFLATVGVSPDHQGKGLGSAVVLPGVEAAERAGVPAFLETSAPRNLPFYERLGFTVTADVEVPEGPRTWCMTRKPGA", "modifications": "Polynucleotide encoding a Synthetic Immune Receptor (SIR)"}, "B2": {"name": "012517-M12 (protein)", "chain": "MALPVTALLLPLALLLHAARPLEGKPIPNPLLGLDSTGSGEDLKNVFPPEVAVFEPSKAEIAHTQKATLVCLATGFYPDHVELSWWVNGKEVHSGVCTDPQPLKEQPALNDSRYCLSSRLRVSATFWQNPRNHFRCQVQFYGLSENDEWTQDRAKPVTQIVSAEAWGRADCGITSASYHQGVLSATILYEILLGKATLYAVLVSALVLMAMVKRKDSRGRAKRSGSGATNFSLLKQAGDVEENPGPTSMALPVTALLLPLALLLHAARPDVLMTQTPVSLPVSLGGQVSISCRSSQSLVHSDGDTYLHWYLQKPGQSPQLLIYRVSNRFSGVPDRFSGSGSGTDFTLKISRVEPEDLGLYYCLQTTHFPPWTFGGGTKLEMKGGGGSGGGGSGGGGSQVQLQQSGPELRRPGSSVRLSCKASGYRIKDFLIHWIKNRPEHGLEWIGWIDPEDGETKYAQKFQTKATLTADTSSNTAYMQLSSLTSEDTATYFCARWGDVYYGLMRGHVMDAWGQGTSVTVSSTREQKLISEEDGSGIQNPDPAVYQLRDSKSSDKSVCLFTDFDSQTNVSQSKDSDVYITDKCVLDMRSMDFKSNSAVAWSNKSDFACANAFNNSIIPEDTFFPSSDVPCDVKLVEKSFETDTNLNFQNLSVIGFRILLLKVAGFNLLMTLRLWSSRAKRSGSGVKQTLNFDLLKLAGDVESNPGPSRGHMTEYKPTVRLATRDDVPRAVRTLAAAFADYPATRHTVDPDRHIERVTELQELFLTRVGLDIGKVWVADDGAAVAVWTTPESVEAGAVFAEIGPRMAELSGSRLAAQQQMEGLLAPHRPKEPAWFLATVGVSPDHQGKGLGSAVVLPGVEAAERAGVPAFLETSAPRNLPFYERLGFTVTADVEVPEGPRTWCMTRKPGA"}, "B3": {"name": "090116-H02 (protein)", "chain": "MALPVTALLLPLALLLHAARPLEGKPIPNPLLGLDSTGSGEDLKNVFPPEVAVFEPSKAEIAHTQKATLVCLATGFYPDHVELSWWVNGKEVHSGVCTDPQPLKEQPALNDSRYCLSSRLRVSATFWQNPRNHFRCQVQFYGLSENDEWTQDRAKPVTQIVSAEAWGRADCGITSASYHQGVLSATILYEILLGKATLYAVLVSALVLMAMVKRKDSRGRAKRSGSGATNFSLLKQAGDVEENPGPTSMALPVTALLLPLALLLHAARPDIQMTQSTSSLSASLGDRVTISCSASQGINNYLNWYQQKPDGTVELLIYYTSTLQSGVPSRFSGSGSGTDYSLTISNLEPEDIGTYYCQQYSKLPRTFGGGTKLEIKGGGGSGGGGSGGGGSQVQLQQSGSELMMPGASVKISCKATGYTFSNYWIEWVKQRPGHGLEWIGEILPGTGRTIYNEKFKGKATFTADISSNTVQMQLSSLTSEDSAVYYCARRDYYGNFYYAMDYWGQGTSVTVSSTREQKLISEEDGSGIQNPDPAVYQLRDSKSSDKSVCLFTDFDSQTNVSQSKDSDVYITDKCVLDMRSMDFKSNSAVAWSNKSDFACANAFNNSIIPEDTFFPSSDVPCDVKLVEKSFETDTNLNFQNLSVIGFRILLLKVAGFNLLMTLRLWSSRAKRSGSGVKQTLNFDLLKLAGDVESNPGPSRGHMTEYKPTVRLATRDDVPRAVRTLAAAFADYPATRHTVDPDRHIERVTELQELFLTRVGLDIGKVWVADDGAAVAVWTTPESVEAGAVFAEIGPRMAELSGSRLAAQQQMEGLLAPHRPKEPAWFLATVGVSPDHQGKGLGSAVVLPGVEAAERAGVPAFLETSAPRNLPFYERLGFTVTADVEVPEGPRTWCMTRKPGA", "modifications": "Synthetic Immune Receptor (SIR)"}, "B4": {"name": "072717-G01 (protein)", "chain": "MALPVTALLLPLALLLHAARPLEGKPIPNPLLGLDSTGSGEDLKNVFPPEVAVFEPSKAEIAHTQKATLVCLATGFYPDHVELSWWVNGKEVHSGVCTDPQPLKEQPALNDSRYCLSSRLRVSATFWQNPRNHFRCQVQFYGLSENDEWTQDRAKPVTQIVSAEAWGRADCGITSASYHQGVLSATILYEILLGKATLYAVLVSALVLMAMVKRKDSRGRAKRSGSGATNFSLLKQAGDVEENPGPTSMALPVTALLLPLALLLHAARPEFAVQLVESGGGLVQAGDSLRLTCTASGRAFSTYFMAWFRQAPGKEREFVAGIAWSGGSTAYADSVKGRFTISRDNAKNTVYLQMNSLKSEDTAVYYCASRGIEVEEFGAWGQGTQVTVSSPGGGGSPQVQLVESGGGLVQAGGSLRLSCAASGGTLSKNTVAWFRQAPGKERGFVASITWDGRTTYYADSVKGRFTISRDNAKNTVYLQMNSLKPEDTAVYVCADLGKWPAGPADYWGQGTQVTVSSEVAALEKEVAALEKEVAALEKEVAALEKTREQKLISEEDGSGIQNPDPAVYQLRDSKSSDKSVCLFTDFDSQTNVSQSKDSDVYITDKCVLDMRSMDFKSNSAVAWSNKSDFACANAFNNSIIPEDTFFPSSDVPCDVKLVEKSFETDTNLNFQNLSVIGFRILLLKVAGFNLLMTLRLWSSRAKRSGSGVKQTLNFDLLKLAGDVESNPGPSRGHMTEYKPTVRLATRDDVPRAVRTLAAAFADYPATRHTVDPDRHIERVTELQELFLTRVGLDIGKVWVADDGAAVAVWTTPESVEAGAVFAEIGPRMAELSGSRLAAQQQMEGLLAPHRPKEPAWFLATVGVSPDHQGKGLGSAVVLPGVEAAERAGVPAFLETSAPRNLPFYERLGFTVTADVEVPEGPRTWCMTRKPGA"}}, "test_system": "target antigen-expressing cell line", "test": "Jurkat NFAT-GFP assay, coculture with target cell lines expressing the respective target antigen (summary Table 10A)", "type": "cell-based, human", "set-up": "key: The signs +/−, +, 2+ etc. after the name of the cell lines indicate the relative degree of positivity on the Jurkat-NFAT-GFP assay as measured by the % GFP positive cells; +: relative degree of positivity on the Jurkat-NFAT-GFP assay as measured by the % GFP positive cells; 2+: relative degree of positivity on the Jurkat-NFAT-GFP assay as measured by the % GFP positive cells", "how_it_was_run": "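Stable SIR expression in Jurkat-NFAT-GFP cells by lentiviral transfer and puromycin selection; coculture with target cells (E:T approximately 1:2) for 4 to 18 hours; flow cytometric measurement of NFAT-driven GFP; scoring as positive when % GFP-positive cells exceeds that of parental reporter cells.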", "data": [{"molecule": "B1", "values": [{"measurement": "NFAT-GFP ASSAY Positive Cell lines", "setting": "coculture with U266 cells", "result": "U266 (+/−)"}]}, {"molecule": "B2", "values": [{"measurement": "NFAT-GFP ASSAY Positive Cell lines: L428", "setting": "SIR-expressing Jurkat-NFAT-GFP cells cocultured with L428, relative % GFP positive cells", "result": "L428 (+)"}]}, {"molecule": "B3", "values": [{"measurement": "NFAT-GFP ASSAY Positive Cell lines", "setting": "coculture with L363 cells", "result": "L363 (+), U266 (+)"}, {"measurement": "NFAT-GFP ASSAY Positive Cell lines", "setting": "coculture with U266 cells", "result": "L363 (+), U266 (+)"}]}, {"molecule": "B4", "values": [{"measurement": "NFAT-GFP ASSAY Positive Cell lines: L363", "setting": "SIR-expressing Jurkat-NFAT-GFP cells cocultured with L363, relative % GFP positive cells", "result": "L363 (+/−), U266"}, {"measurement": "NFAT-GFP ASSAY Positive Cell lines: U266", "setting": "SIR-expressing Jurkat-NFAT-GFP cells cocultured with U266, relative % GFP positive cells", "result": "(+/−)"}]}]}
